Values belong to the binder of their own block, whether it stands above or below them. FAM = carboxyfluorescein label
Experiments:
[1] = target: T1, eIF4E, purified recombinant human full-length (human, UniProt P06730 1-217); experiment: fluorescence polarisation; competition: eIF4E 200 nM, FAM-labelled eIF4G1 peptide 50 nM, VH domains titrated; PBS pH 7.4, 0.1% Tween 20; conditions: both partners purified
T1 construct: eIF4E, human, full-length clone in pET11d; m7GTP was present at immobilisation and in the crystals; also called pure eIF4E; eukaryotic translation initiation factor 4E

[2] = target: T1, eIF4E, purified recombinant human …; experiment: SPR; 4E-BP1^4ALA over eIF4E amine-coupled to a CM5 chip; single or multi cycle not told; fitted with a 1:1 model (poor fit) and then with a 2-state model; n = 3; conditions: both partners purified

T1 sequence (P06730 whole entry, the tested form may be a part): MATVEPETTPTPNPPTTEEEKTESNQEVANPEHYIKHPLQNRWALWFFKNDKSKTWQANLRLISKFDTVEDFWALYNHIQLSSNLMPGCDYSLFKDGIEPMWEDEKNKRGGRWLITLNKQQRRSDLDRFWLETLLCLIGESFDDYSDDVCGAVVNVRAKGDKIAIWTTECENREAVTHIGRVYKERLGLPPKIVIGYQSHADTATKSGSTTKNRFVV

binding result [1]: binds
B1: FAM labelled eIF4G1 peptide (Ac-KKRYSRDFLLALQK-(FAM)-NH2) (peptide)
peptide: Ac-KKRYSRDFLLALQK(FAM)-NH2
notes: also called labelled peptide; tracer peptide; source: synthetic peptide; bought: Mimotopes

Kd [2]: 0.68 nM
B2: 4E-BP1^4ALA, purified (natural protein, UniProt Q13541 1-118, looked up)
chain: MSGGSSCSQTPSRAIPATRRVVLGDGVQLPPGDYSTAPGGTLFSTAPGGTRIIYDRKFLMECRNAPVTKAPPRDLPTIPGVTSPSSDEPPMEASQSHLRNSPEDKRAGGEESQFEMDI
